Experiment: yeast display, Sf9 membrane polyspecificity reagent, FACS + sequencing; frameworks hold sequencing errors
Procedure, shortened: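 After 36–48 hours of galactose induction, yeast (Saccharomyces cerevisiae BJ5465) displaying a synthetic nanobody library were stained at 4 °C for 1 hour with 10% biotinylated, detergent-solubilized Sf9 membrane reagent. Streptavidin microbeads enriched the stained cells before FACS sorting into low and high (top ~1%) gates on anti-HA and streptavidin fluorescence. Each clone's polyreactivity label reflects its gate of origin.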

Row | Sequence | polyreactivity (PSR sort gate)
1 | QVQLVESGGGLVQAGGSLRLSCAASGITFYEYAMGWYRQAPGKERELVATITSGGNTNYADSVKGRFTISRDNAKNTVYLQMNSLKPEDTAVYYCNKEWDGDGYTDDWDYDYWGQGTQVTVSS | low polyreactivity
2 | QVQLVESGGGLVQAGGSLRLSCAASGITFYFYAMGWYRQAPGKERELVARITSRGTRTYYADSVKGRFTISRDNAKNTVYLQMNSLKPEDTAVYYCAAGVSWDDYYWGQGTQVTVSS | high polyreactivity
3 | QVQLVESGGGLVQAGGSLRLSCAASGITFYFYAMGWYRQAPGKERELVASITSSGSTDYADSVKGRFTISRDNAKNTVYLQMNSLKPEDTAVSYCAADVQKHFYSFGDERGFPFDYWGQGTQVTVSS | low polyreactivity
4 | QVQLVESGGGLVQAGGSLRLSCAASGITFYFYVMGWYRQAPGKERELVADISTSDDSTYYADSVKGRFTISRDNAKNTVYLQMNSLKPEDTAVYYCATATRTYSAWYEYDYWGQGTQVTVSS | low polyreactivity
5 | QVQLVESGGGLVQAGGSLRLSCAASGITFYGNAMGWYRQAPGKERELVAAISSSGGTTYYADSVKGRFTISRDNAKNTVYLQMNSLIPEDTAVYYCNALHPVVYYGTYFNLRRYDYWGQGTQVTVSS | low polyreactivity
6 | QVQLVESGGGLVQAGGSLRLSCAASGITFYGYAMAWYRQAPGKERELVATITSGGSTYYADSVKGRFTISRDNAKNTVYLQMNSLKPEDTAVYYCAASRWYRRTRYGYWGQGTQVTVSS | high polyreactivity
7 | QVQLVESGGGLVQAGGSLRLSCAASGITFYGYAMGWYRQAPGKERELVAAISRSGGSTYYADSVKGRFTISRDHAKNTVYVQMNSLKPEDTAVYYCNTDYGSSYNYWGQGTQVTVSS | high polyreactivity
8 | QVQLVESGGGLVQAGGSLRLSCAASGITFYGYAMGWYRQAPGKERELVARITISGRTNYADYVKGRFTISRDNAKNTVYLQMNSLKPEDTAVYYCNAVYRGYYSGELDYWGQGTQVTVSS | high polyreactivity
9 | QVQLVESGGGLVQAGGSLRLSCAASGITFYGYAMGWYRQAPGQERELVAAISSRGGSTYYADSVKGRFTISRDNAKNTVYLQMNSLKPEDTAVYNCAAVYYTGEYYYWGQGTQVTVSS | high polyreactivity
10 | QVQLVESGGGLVQAGGSLRLSCAASGITFYGYDMGWYRQAPGKERELFAAISRSGGSTYYADSVKGRFTISRDNAKNTVYLQMNSLKPEDTAVYYCAADKQGYLGRTAFRYYYWGQGTQVTVSS | high polyreactivity
11 | QVQLVESGGGLVQAGGSLRLSCAASGITFYGYDMGWYRQAPGKERELVAAITSDGITNYADSVKGRFTISRDNAKNTVYLQMNSLKPEDTAVYYCAADLSFYRRYEWYYYWGQGTQVTVSS | low polyreactivity
12 | QVQLVESGGGLVQAGGSLRLSCAASGITFYINAMGWYRQAPGKERELVAVIDSRGSSTFYADSVKGRFTISRDNAKNTVYLVMKSLKPEDTAVYYCAAEPFWDYYATFYWKYGYWGQGTQVTVSS | low polyreactivity
13 | QVQLVESGGGLVQAGGSLRLSCAASGITFYIYAMGWYRQAPGKERELVATISWSDGRTYYADSVKGRFTISRDNAKNTVYCQMNSLKPEDTAVYYCAADWWYYQFDYEYWGQGTQVTVSS | low polyreactivity
14 | QVQLVESGGGLVQAGGSLRLSCAASGITFYIYAMGWYRQAPGKERELVATISWSDGRTYYADSVKGRFTISRDNAKNTVYLQINSLKPEDTAVYYCAADWWYYQFDYEYWGQGTQVTVSS | low polyreactivity
15 | QVQLVESGGGLVQAGGSLRLSCAASGITFYKKVMGWYRPAPGKEKELVAAISSSGGSTYYADSVKGRFTISRDNAKNTVYLQRNSLKPEDTAVYYCAADDPLYTPYEFDYWGQGTQVTVSS | low polyreactivity
16 | QVQLVESGGGLVQAGGSLRLSCAASGITFYLYAMGWYRQAPGKERELVAAISSSGGRTYYADSVKGRFTISRDNAKNTVYLQMNSLKPEDTAVYYCAARRYGVPPTYDYWGQGTQVTVSS | high polyreactivity

Row | Sequence | polyreactivity (PSR sort gate)
17 | QVQLVESGGGLVQAGGSLRLSCAASGITFYLYAMGWYRQAPGKERELVAAISSSGGSTYYADSVKGRFTISRDNAKNTVYLQMNSLKPEDTAVYYCNARRRTVPYRYYYWGQGTQVTVSS | high polyreactivity
18 | QVQLVESGGGLVQAGGSLRLSCAASGITFYPNDMGWYRQAPGKERELVAAITTNDGDTYYADSVKGRFTISRDNAKNTVYVQMNSLKPEDTAVYYCATGIDKGPVWVTYSTDYDYWGQGTQVTVSS | low polyreactivity
19 | QVQLVESGGGLVQAGGSLRLSCAASGITFYPYAMGWYRQAPGKERELVAAITLSTGTTYYADSVKGRFTISRDNAKNTVYLQMNSLKPEDTAVYYCAVEGYWYAGWYAMDYWGQGTQVTVSS | low polyreactivity
20 | QVQLVESGGGLVQAGGSLRLSCAASGITFYRKAMGRYRQAPGKERELVAAISRRGGITRYADSVKGRFTISRDNAKNTVYLQMNSLKPEDTAVYYCATVRYRWYSFQAERYYWGQGTQVTVSS | high polyreactivity
21 | QVQLVESGGGLVQAGGSLRLSCAASGITFYRYALGWYRQAPGKEREFVAAISRSGVSTYYADSVKGRFTISRDNAKNTVYLQMNSLKPEDTAVYYCNKVYYPGFGYEGDYWGQGTQVTVSS | high polyreactivity
22 | QVQLVESGGGLVQAGGSLRLSCAASGITFYRYAMGWYRQAPGKEREFVAAINYGGSSTRYADSVKGRFTISRDNAKNTVYLQMNCLKPEDTAVYYCAVEKRYPRRRYDYWGQGTQVTVSS | low polyreactivity
23 | QVQLVESGGGLVQAGGSLRLSCAASGITFYRYAMGWYRQAPGKERELVAGITRSGGSTYYADSVKGRFTISRDNAKNTVYLQMNSLKPEDTAVYYCAARIYSFRTKGGYGYWGQGTQVTVSS | high polyreactivity
24 | QVQLVESGGGLVQAGGSLRLSCAASGITFYRYAMGWYRQAPGKERELVASISSRGSSTYYADSVKGRFTISRDNAKNTVYLQMNSLKPEDTAVYYCAKSRGSRGFVASTYNYWGQGTQVTVSS | high polyreactivity
25 | QVQLVESGGGLVQAGGSLRLSCAASGITFYRYAMGWYRQEPGKERELVAAISRSGGSTYYADSVKGRFTISRDNAKNTVYLQMNSLKPQDTEVYYCADYILGNRVGYDYWGQGTQVTVSS | high polyreactivity
26 | QVQLVESGGGLVQAGGSLRLSCAASGITFYRYDMVWYRQAPGKERELVAAISRSGGSTYYADSVKGRFTISRDNAKNTVYLQMNSLKPEDSAVYYCAAYILGNRDGYDYWGQGTQVTVSS | high polyreactivity
27 | QVQLVESGGGLVQAGGSLRLSCAASGITFYRYFMGWYRPAPGKERELVAAISRGGGSTYYADSVKGRFTISRDNAKNTVYLQMNSLKPEDTAVYYCNARYLYRHDYWGQGTQVTVSS | high polyreactivity
28 | QVQLVESGGGLVQAGGSLRLSCAASGITFYRYTMGWYRQAPGKERELVAAIRSAGSTYYADSVKGRFTISRDNAKNTVYLQMNSLKPEDTAVYYCAATYYRYNVPYYGGNGGDYWGQGTQVTVSS | high polyreactivity
29 | QVQLVESGGGLVQAGGSLRLSCAASGITFYRYVMGWYRQAPGKERELVAAITSRGGSTSYADSVKGRFTISRDNAKNTVYLQMNSLKPEDTAVYYCAAVYRRDYDYWGQGTQVTVSS | high polyreactivity
30 | QVQLVESGGGLVQAGGSLRLSCAASGITFYRYVMGWYRQAPGKERELVAAITTGDSTYYADSVKGRFTISRDNAKNTVYLLMNSLKPEDTAVYYCAAVYYSALANYDYWGQGTQVTVSS | low polyreactivity
31 | QVQLVESGGGLVQAGGSLRLSCAASGITFYSNAMGWYRQAPGKERELVAAISYRGGSTYYADSVKGRFTISRDNAKNTVYLQMNSLKPEDTAVYYCNKEVDWGWGRISYDSWGQGTQVTVSS | low polyreactivity
